From article PMC4230899, “Diverse allosteric and catalytic functions of tetrameric D-lactate dehydrogenases from three Gram-negative bacteria” (AMB Express, 2014)

Legend:
ECLDH [1] = target: T1, ECLDH (Escherichia coli, UniProt P52643); test: NADH absorbance at […] nm, pyruvate reduction, nonlinear regression; assay type: biochemical
T1 construct: gene ldhA
T1 sequence (P52643 1-329): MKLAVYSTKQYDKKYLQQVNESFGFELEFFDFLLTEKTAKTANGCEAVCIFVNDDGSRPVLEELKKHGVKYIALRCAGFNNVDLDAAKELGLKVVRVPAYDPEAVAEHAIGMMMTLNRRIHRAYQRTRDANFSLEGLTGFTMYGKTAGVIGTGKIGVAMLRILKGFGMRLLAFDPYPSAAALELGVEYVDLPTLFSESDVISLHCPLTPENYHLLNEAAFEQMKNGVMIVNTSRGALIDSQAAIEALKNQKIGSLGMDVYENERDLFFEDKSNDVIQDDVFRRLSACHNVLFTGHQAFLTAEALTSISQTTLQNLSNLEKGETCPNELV

PALDH = target: T2, PALDH (Pseudomonas aeruginosa, UniProt Q9I530); test: as above; assay type: biochemical
T2 construct: gene ldhA
T2 sequence (Q9I530 1-329): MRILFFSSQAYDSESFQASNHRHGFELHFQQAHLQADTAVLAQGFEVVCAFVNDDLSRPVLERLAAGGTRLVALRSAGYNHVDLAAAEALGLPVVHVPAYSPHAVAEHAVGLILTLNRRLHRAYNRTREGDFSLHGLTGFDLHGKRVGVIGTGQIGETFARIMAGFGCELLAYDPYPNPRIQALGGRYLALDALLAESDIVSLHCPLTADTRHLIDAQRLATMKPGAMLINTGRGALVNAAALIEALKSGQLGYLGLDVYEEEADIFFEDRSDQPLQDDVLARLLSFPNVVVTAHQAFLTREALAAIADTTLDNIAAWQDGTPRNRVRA

FNLDH = target: T3, FNLDH (Fusobacterium nucleatum, UniProt Q8RG11); test: as above; assay type: biochemical
T3 construct: gene FN0511
T3 sequence (Q8RG11 1-335): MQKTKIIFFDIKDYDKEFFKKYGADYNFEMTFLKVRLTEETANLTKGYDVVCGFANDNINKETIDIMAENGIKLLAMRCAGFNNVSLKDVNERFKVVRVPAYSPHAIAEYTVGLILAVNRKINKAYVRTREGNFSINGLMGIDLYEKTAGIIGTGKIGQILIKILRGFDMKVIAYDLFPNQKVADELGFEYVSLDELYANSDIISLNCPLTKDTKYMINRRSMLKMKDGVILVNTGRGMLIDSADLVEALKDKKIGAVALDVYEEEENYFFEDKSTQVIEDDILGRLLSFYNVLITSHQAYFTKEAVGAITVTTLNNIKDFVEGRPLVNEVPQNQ

[2] = target: NAD-dependent D-lactate dehydrogenase from Pseudomonas aeruginosa (Pseudomonas aeruginosa JCM8532 (=PAO1)); test: SEC; Superdex 200 (Hiload 16/60), 1 ml of 1 mg/ml protein, 50 mM sodium acetate pH 5.0 with 150 mM NaCl; calibrated with standard proteins; apparent molecular weight against theoretical subunit weight
ECLDH [3] = target: T1, ECLDH; test: NADH absorbance at […] nm, activation of pyruvate reduction, Hill fit; assay type: biochemical; settings: slight activator, half-saturation for activation; 7.5 mM pyruvate, 0.1 mM NADH; 50 mM Bicine-NaOH pH 8.0; 30 °C; read-out: S 0.5
[4] = target: the molecule itself; test: SEC; Superdex 200 (Hiload 16/60), 1 ml of 1 mg/ml protein, 50 mM HEPES-NaOH pH 8.0 with 150 mM NaCl; calibrated with standard proteins; apparent molecular weight against theoretical subunit weight
purified protein [5] = substrate: CC(=O)C(=O)O; test: purified protein; assay type: biochemical, Escherichia coli; settings: 0.1 mM NADH, pH 7.0, 30 °C, no effector, Hill fit
purified protein [6] = substrate: O=CC(=O)O; test: purified protein; assay type: biochemical, Escherichia coli; settings: 0.1 mM NADH, pH 7.0, 30 °C, Hill fit
purified protein [7] = substrate: O=C(O)C(=O)CO; test: purified protein; assay type: biochemical, Escherichia coli; settings: 0.1 mM NADH, pH 7.0, 30 °C
purified protein [8] = substrate: NC(=O)C1=CN([C@@H]2O[C@H](COP(=O)(O)OP(=O)(O)OC[C@H]3O[C@@H](n4cnc5c(N)ncnc54)[C@H](O)[C@@H]3O)[C@@H](O)[C@H]2O)C=CC1; test: purified protein; assay type: biochemical, Escherichia coli; settings: saturating pyruvate, pH 7.0, 30 °C, no effector, apparent, varied: cofactor
purified protein [9] = substrate: CCC(=O)C(=O)O; test: purified protein; assay type: biochemical, Fusobacterium nucleatum; settings: 0.1 mM NADH, pH 7.0, 30 °C
purified protein [10] = substrate: CCCC(=O)C(=O)O; test: purified protein; assay type: biochemical, Fusobacterium nucleatum; settings: 0.1 mM NADH, pH 7.0, 30 °C
purified protein [11] = substrate: CC(=O)C(=O)O; test: purified protein; assay type: biochemical, Fusobacterium nucleatum; settings: 0.1 mM NADH, pH 7.0, 30 °C, no effector
purified protein [12] = substrate: O=C(O)CC(=O)C(=O)O; test: purified protein; assay type: biochemical, Fusobacterium nucleatum; settings: 0.1 mM NADH, pH 7.0, 30 °C, fit with substrate inhibition
purified protein [13] = substrate: NC(=O)C1=CN([C@@H]2O[C@H](COP(=O)(O)OP(=O)(O)OC[C@H]3O[C@@H](n4cnc5c(N)ncnc54)[C@H](O)[C@@H]3O)[C@@H](O)[C@H]2O)C=CC1; test: purified protein; assay type: biochemical, Fusobacterium nucleatum; settings: saturating pyruvate, pH 7.0, 30 °C, no effector, apparent, varied: cofactor
purified protein [14] = substrate: CCC(=O)C(=O)O; test: purified protein; assay type: biochemical, Pseudomonas aeruginosa; settings: 0.1 mM NADH, pH 7.0, 30 °C
purified protein [15] = substrate: CC(=O)C(=O)O; test: purified protein; assay type: biochemical, Pseudomonas aeruginosa; settings: 0.1 mM NADH, pH 7.0, 30 °C, no effector, fit with substrate inhibition
purified protein [16] = substrate: O=C(O)CC(=O)C(=O)O; test: purified protein; assay type: biochemical, Pseudomonas aeruginosa; settings: 0.1 mM NADH, pH 7.0, 30 °C
purified protein [17] = substrate: O=C(O)C(=O)CO; test: purified protein; assay type: biochemical, Pseudomonas aeruginosa; settings: 0.1 mM NADH, pH 7.0, 30 °C, fit with substrate inhibition
purified protein [18] = substrate: NC(=O)C1=CN([C@@H]2O[C@H](COP(=O)(O)OP(=O)(O)OC[C@H]3O[C@@H](n4cnc5c(N)ncnc54)[C@H](O)[C@@H]3O)[C@@H](O)[C@H]2O)C=CC1; test: purified protein; assay type: biochemical, Pseudomonas aeruginosa; settings: saturating pyruvate, pH 7.0, 30 °C, no effector, apparent, varied: cofactor

Question: `NC(=O)C(=O)O` [Oxamate] was tested. Which Ki (ECLDH [1]) did it give?
Answer: 20 ± 2 mM

Question: What about the Ki (PALDH) of the same molecule?
Answer: 0.29 ± 0.04 mM

Question: What about the Ki (FNLDH) of the same molecule?
Answer: 9.4 ± 0.2 mM

Question: “NAD-dependent D-lactate dehydrogenase from Pseudomonas aeruginosa (enzyme)” was tested. Which stoichiometry N [2] did it give?
Answer: 3

Question: `O=P(O)(O)OC[C@H]1OC(O)(COP(=O)(O)O)[C@@H](O)[C@@H]1O` (stereo partly shown) [FBP] was tested. Which EC50 (ECLDH [3]) did it give?
Answer: 1.3 mM

B1: NAD-dependent D-lactate dehydrogenase from Escherichia coli (enzyme, E. coli BL21(DE3), UniProt P52643 1-329, looked up)
chain: T1 sequence (P52643 1-329)
notes: gene amplified from genomic DNA with primers from the start codon to the stop codon; theoretical molecular weight printed as 38.5 kDa; No removal of the vector's tag is described; the printed theoretical mass (38.5 kDa) may include the leader of pCold I (surmise); A second peak at the position of an octamer was seen and put down as a likely artefact of overexpression; also called ECLDH; …
Question: How did the “stoichiometry N” value [4] turn out when B1 was run?
Answer: 4

Question: And the K0.5 (purified protein [5])?
Answer: 2.6 (0.09) mM

Question: And the kcat (purified protein [5])?
Answer: 410 s⁻¹

Question: What about the kcat/Km (purified protein [5]) of the same molecule?
Answer: 160000 M⁻¹ s⁻¹

Question: And the K0.5 (purified protein [6])?
Answer: 20 (2) mM

Question: And the kcat (purified protein [6])?
Answer: 100 s⁻¹

Question: And the kcat/Km (purified protein [6])?
Answer: 5300 M⁻¹ s⁻¹

Question: And the K0.5 (purified protein [7])?
Answer: 12 (0.3) mM

Question: What about the kcat (purified protein [7]) of the same molecule?
Answer: 50 s⁻¹

Question: What about the kcat/Km (purified protein [7]) of the same molecule?
Answer: 4200 M⁻¹ s⁻¹

Question: And the K0.5 (purified protein [8])?
Answer: 0.055 (0.004) mM

Question: And the kcat (purified protein [8])?
Answer: 640 s⁻¹

Question: And the kcat/Km (purified protein [8])?
Answer: 1.2e+07 M⁻¹ s⁻¹

B2: NAD-dependent D-lactate dehydrogenase from Fusobacterium nucleatum subsp. nucleatum (enzyme, UniProt Q8RG11 1-335, looked up)
chain: T3 sequence (Q8RG11 1-335)
notes: FN0511 protein (FNLDH), NAD-dependent D-lactate dehydrogenase of Fusobacterium nucleatum subsp. nucleatum JCM14847 (=ATCC25586); gene amplified from genomic DNA with primers from the start codon to the stop codon; theoretical molecular weight printed as 40.0 kDa; No removal of the vector's tag is described; the printed theoretical mass (40.0 kDa) may include the leader of pCold I (surmise); The …
Question: For B2, which “stoichiometry N” value [4] is on record?
Answer: 4

Question: And the K0.5 (purified protein [9])?
Answer: 0.31 (0.006) mM

Question: What about the kcat (purified protein [9]) of the same molecule?
Answer: 140 s⁻¹

Question: What about the kcat/Km (purified protein [9]) of the same molecule?
Answer: 440000 M⁻¹ s⁻¹

Question: What about the K0.5 (purified protein [10]) of the same molecule?
Answer: 0.68 (0.01) mM

Question: What about the kcat (purified protein [10]) of the same molecule?
Answer: 140 s⁻¹

Question: And the kcat/Km (purified protein [10])?
Answer: 200000 M⁻¹ s⁻¹

Question: And the K0.5 (purified protein [11])?
Answer: 0.34 (0.007) mM

Question: What about the kcat (purified protein [11]) of the same molecule?
Answer: 80 s⁻¹

Question: And the kcat/Km (purified protein [11])?
Answer: 230000 M⁻¹ s⁻¹

Question: What about the K0.5 (purified protein [12]) of the same molecule?
Answer: 2.5 (0.09) mM

Question: What about the kcat (purified protein [12]) of the same molecule?
Answer: 80 s⁻¹

Question: What about the kcat/Km (purified protein [12]) of the same molecule?
Answer: 31000 M⁻¹ s⁻¹

Question: What about the K0.5 (purified protein [13]) of the same molecule?
Answer: 0.022 (0.0005) mM

Question: What about the kcat (purified protein [13]) of the same molecule?
Answer: 98 s⁻¹

Question: What about the kcat/Km (purified protein [13]) of the same molecule?
Answer: 4.4e+06 M⁻¹ s⁻¹

B3: PALDH (Pseudomonas aeruginosa PAO1) (protein)
chain: T2 sequence (Q9I530 1-329)
Question: B3 was tested. Which K0.5 (purified protein [14]) did it give?
Answer: 0.64 (0.01) mM

Question: What about the kcat (purified protein [14]) of the same molecule?
Answer: 100 s⁻¹

Question: What about the kcat/Km (purified protein [14]) of the same molecule?
Answer: 150000 M⁻¹ s⁻¹

Question: And the K0.5 (purified protein [15])?
Answer: 0.10 (0.009) mM

Question: And the kcat (purified protein [15])?
Answer: 400 s⁻¹

Question: What about the kcat/Km (purified protein [15]) of the same molecule?
Answer: 4e+06 M⁻¹ s⁻¹

Question: What about the K0.5 (purified protein [16]) of the same molecule?
Answer: 1.7 (0.06) mM

Question: What about the kcat (purified protein [16]) of the same molecule?
Answer: 410 s⁻¹

Question: What about the kcat/Km (purified protein [16]) of the same molecule?
Answer: 230000 M⁻¹ s⁻¹

Question: What about the K0.5 (purified protein [17]) of the same molecule?
Answer: 3.0 (0.2) mM

Question: What about the kcat (purified protein [17]) of the same molecule?
Answer: 420 s⁻¹

Question: What about the kcat/Km (purified protein [17]) of the same molecule?
Answer: 140000 M⁻¹ s⁻¹

Question: And the K0.5 (purified protein [18])?
Answer: 0.019 (0.0005) mM

Question: And the kcat (purified protein [18])?
Answer: 310 s⁻¹

Question: And the kcat/Km (purified protein [18])?
Answer: 1.7e+07 M⁻¹ s⁻¹
